Source: patent publication US8440430, “Modified dicer polypeptide and methods of use thereof” (The Regents of the University of California)

B1: 37ab duplex RNA (dsRNA)
RNA 1: UGAGGUAGUAGGUUGUAUAGUUUGAAAGUUCACGAUU
RNA 2: UCGUGAACUUUCAAACUAUACAACCUACUACCUCAUU
B2: pre-hlet-7 hairpin RNA (ssRNA)
RNA: UGAGGUAGUAGGUUGUAUAGUUUUAGGGUCACACCCACCACUGGGAGAUAACUAUACAAUCUACUGUCUUACC

Tests used:
[1] = target: ΔdsRBD human Dicer (Homo sapiens, UniProt Q9UPY3 SEQ:1-1922, del1844-1922); experiment: filter; within three-fold of full-length; dsRBD deletion did not significantly affect binding; 5 mM EDTA; settings: tags: N-terminal His6 removed by site-specific protease, baculovirus/Sf9
Description: (§1) A serial dilution of proteins were incubated in a buffer containing 20 mM Tris-Cl (pH 7.5), 25 mM NaCl, 5 mM EDTA, 1 mM dithiothreitol (DTT), 1% glycerol and ~0.5-1 nM (1500 c.p.m.) of ^32P-labeled duplex RNA substrate (one strand was labeled) at room temperature for 60 min […] After this incubation, 25 µl of each reaction were used for dot-blotting, which was conducted in a dot-blot apparatus equipped with 3 membranes of Tuffryn, Protran and Nytran (from top to bottom). After dried, the bound (on Protran) or free (on Nytran) RNAs were detected and quantified with Phosphoimager (GE Healthcare). Percentage of bound RNAs was calculated by 100 multiplied by the ratio of radioactivity (volumes) detected on the Protran membrane over the total input volumes (radioactivity). The bound RNAs (%) (Y-axle) were plotted against protein concentrations (X-axle). K_d was determined by global fitting to the equation of kobsd = (kmax ×[Dicer])(K_{1/2} + [Dicer])^-1, here $kobsd$ is the observed rate constant at a particular protein concentration, $kmax$ is the maximal rate constant with saturating protein, and K_{1/2} (or K_d) is the protein concentration that provides half the maximal rate. Curve fitting was conducted with KleidaGraph (Synery Software).
(§2) RNA. […] These values are similar to those measured previously (Provost et al, 2002; Vermeulen et al, 2005).

[2] = target: wild-type human Dicer (flhDcr) (Homo sapiens, UniProt Q9UPY3 SEQ:1-1922); experiment: filter; 5 mM EDTA, no free Mg2+, 25 mM NaCl, pH 7.5, room temperature; settings: tags: N-terminal His6 removed by site-specific protease, baculovirus/Sf9
Description: as §1, §2

[3] = label: 5'-32P on one strand, perfect duplex with 2-nt 3' overhangs on both ends

Sequence of ΔdsRBD human Dicer (Q9UPY3 1-1843, stated change not applied): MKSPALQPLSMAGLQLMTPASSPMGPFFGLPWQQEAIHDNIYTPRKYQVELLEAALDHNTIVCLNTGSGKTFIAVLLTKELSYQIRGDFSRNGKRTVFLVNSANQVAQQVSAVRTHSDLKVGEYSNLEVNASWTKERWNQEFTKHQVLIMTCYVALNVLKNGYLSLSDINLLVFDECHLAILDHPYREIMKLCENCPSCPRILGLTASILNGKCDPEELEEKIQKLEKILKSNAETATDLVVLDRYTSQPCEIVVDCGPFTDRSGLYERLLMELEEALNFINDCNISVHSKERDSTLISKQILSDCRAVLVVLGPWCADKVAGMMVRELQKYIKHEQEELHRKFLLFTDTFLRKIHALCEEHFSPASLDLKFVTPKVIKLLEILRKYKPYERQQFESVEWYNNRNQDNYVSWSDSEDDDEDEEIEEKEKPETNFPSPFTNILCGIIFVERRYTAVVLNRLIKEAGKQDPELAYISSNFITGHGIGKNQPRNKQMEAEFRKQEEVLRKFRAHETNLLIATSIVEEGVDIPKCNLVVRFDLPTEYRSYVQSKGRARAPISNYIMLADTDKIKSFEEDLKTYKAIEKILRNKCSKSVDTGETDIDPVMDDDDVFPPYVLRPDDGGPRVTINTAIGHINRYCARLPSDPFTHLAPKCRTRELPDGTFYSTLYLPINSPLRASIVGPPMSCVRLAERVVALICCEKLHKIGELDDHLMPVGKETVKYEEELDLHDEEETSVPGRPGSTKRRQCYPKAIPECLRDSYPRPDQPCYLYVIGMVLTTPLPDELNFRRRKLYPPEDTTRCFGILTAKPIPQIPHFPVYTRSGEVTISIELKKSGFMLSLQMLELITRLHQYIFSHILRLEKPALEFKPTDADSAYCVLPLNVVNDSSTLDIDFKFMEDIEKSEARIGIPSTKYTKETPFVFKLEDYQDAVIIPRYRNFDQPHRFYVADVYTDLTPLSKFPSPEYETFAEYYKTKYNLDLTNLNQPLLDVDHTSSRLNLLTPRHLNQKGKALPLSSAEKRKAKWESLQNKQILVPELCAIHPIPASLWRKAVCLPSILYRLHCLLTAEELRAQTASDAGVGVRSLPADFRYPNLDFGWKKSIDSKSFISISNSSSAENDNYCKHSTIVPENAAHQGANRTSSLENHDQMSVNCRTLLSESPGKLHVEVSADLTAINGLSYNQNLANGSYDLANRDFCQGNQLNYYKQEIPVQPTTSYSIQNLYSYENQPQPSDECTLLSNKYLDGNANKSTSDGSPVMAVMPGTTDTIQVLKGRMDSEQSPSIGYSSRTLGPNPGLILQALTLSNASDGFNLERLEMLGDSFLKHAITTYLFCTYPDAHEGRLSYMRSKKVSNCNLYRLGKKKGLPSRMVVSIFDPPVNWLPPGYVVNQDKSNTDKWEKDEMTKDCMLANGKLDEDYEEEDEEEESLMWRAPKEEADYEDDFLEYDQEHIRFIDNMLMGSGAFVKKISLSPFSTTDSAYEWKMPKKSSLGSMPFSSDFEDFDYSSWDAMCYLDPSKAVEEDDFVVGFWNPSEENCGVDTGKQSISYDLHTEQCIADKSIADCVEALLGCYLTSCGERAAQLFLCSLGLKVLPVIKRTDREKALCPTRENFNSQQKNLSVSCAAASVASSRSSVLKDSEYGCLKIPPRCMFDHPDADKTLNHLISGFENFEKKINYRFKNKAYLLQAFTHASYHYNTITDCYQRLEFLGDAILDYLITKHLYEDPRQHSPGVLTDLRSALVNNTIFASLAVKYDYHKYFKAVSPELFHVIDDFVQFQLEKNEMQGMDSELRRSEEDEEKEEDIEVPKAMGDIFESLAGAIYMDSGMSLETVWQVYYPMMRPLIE

Binder | Kd relative to full-length Dicer [1, 3] | Kd [2, 3] | Kd relative to full-length Dicer ([1]; label: 5'-32P, hairpin) | Kd ([2]; label: 5'-32P, hairpin)
B1 | ≤ 3 fold of full-length Kd (75 nM) | 75 nM |  | 
B2 |  |  | ≤ 3 fold of full-length Kd (30 nM) | 30 nM
